Reference: paper doi:10.1101/2023.11.26.568713v1

B1: BhcA (Paracoccus denitrificans PD1222) (protein)
chain: MTSQNPIFIPGPTNIPEEMRKAVDMPTIDHRSPVFGRMLHPALEGVKKVLKTTQAQVFLFPSTGTGGWETAITNTLSPGDKVLAARNGMFSHRWIDMCQRHGLDVTFVETPWGEGVPADRFEEILTADKGHEIRVVLATHNETATGVKSDIAAVRRALDAAKHPALLFVDGVSSIGSMDFRMDEWGVDIAVTGSQKGFMLPPGLAIVGFSPKAMEAVETARLPRTFFDIRDMATGYARNGYPYTPPVGLINGLNASCERILAEGLENVFARHHRIASGVRAAVDAWGLKLCAVRPELYSDSVSAIRVPEGFDANLIVSHALETYDMAFGTGLGQVAGKVFRIGHLGSLTDAMALSGIATAEMVMADLGLPIQLGSGVAAAQEHYRQTTAAAQKKAA
B2: GGT1 (Arabidopsis thaliana) (protein)
chain: MALKALDYDTLNENVKKCQYAVRGELYLRASELQKEGKKIIFTNVGNPHALGQKPLTFPRQVVALCQAPFLLDDPNVGMLFPADAIARAKHYLSLTSGGLGAYSDSRGLPGVRKEVAEFIQRRDGYPSDPELIFLTDGASKGVMQILNCVIRGNGDGILVPVPQYPLYSATISLLGGTLVPYYLDESENWGLDVANLRQSVAQARSQGITVRAMVIINPGNPTGQCLSEANIREILKFCYNEKLVLLGDEVYQQNIYQDERPFISSKKVLMEMGSPFSKEVQLVSFHTVSKGYWGECGQRGGYFEMTNLPPRVVEEIYKVASIALSPNVSAQIFMGLMVNPPKPGDISYDQFARESKGILESLRRRARLMTDGFNSCKNVVCNFTEGAMYSFPQIRLPTGALQAAKQAGKVPDVFYCLKLLEATGISTVPGSGFGQKEGVFHLRTTILPAEDEMPEIMDSFKKFNDEFMTQYDNNFGYSKM

What was measured:
[1] = substrate: O=CC(=O)O; experiment: purified protein, by the assay type; settings: pH 7.6; 30.0 °C
[2] = substrate: O=CC(=O)O; experiment: purified protein, by the assay type; settings: pH 7.6; 30.0 °C; remark: listed apart in the source

Protein	Km [1] [µM]	Km [2] [µM]
B1	140 ± 20	190 ± 20
B2	330 ± 30	
